The labels stand for the following.
B1: HIG-1-Flag (human HIG-1 polypeptide with a Flag tag downstream, made in E. coli as GST-HIG-1-Flag, GST cleaved off with PreScission Protease) (other, UniProt Q9Y241 1-93, looked up)
chain: MSTDTGVSLPSYEEDQGSKLIRKAKEAPFVPVGIAGFAAIVAYGLYKLKSRGNTKMSIHLIHMRVAAQGFVVGAMTVGMGYSMYREFWAKPKP
notes: Expressed from pGST-HIG-1-Flag (pGEX 6P-1); also called HIG-1-Flag protein; not shown: Flag tag downstream of HIG-1
B2: monoclonal antibody produced by hybridoma ISK-MMH-TK1 (antibody, V domains shown)
VH: EVQLQQSGPELVKPGASVKISCKTSGYTFTKYTMHWVKQSHGKSLEWIGGINPNNGGSRYDQKFRGKATLTVDKSSSTAYMEFRSLTSEDSAVYYCARDFVYWGQGTLVTVSA
VL: DVLMTQTPLSLPVSLGDQASISCRSSQSIVHSNGNTYLEWYLQKPGQSPKLLIYKVSNRFSGVPDRFSGSGSGTDFTLKISRVEAEDLGVYYCFQGSHVPWTFGGGTKLEIKR
notes: used as hybridoma culture supernatant; The whole entries are named; they hold leader and primer-derived residues, X and * that are not part of the mature antibody; also called FERM BP-11267
B3: monoclonal antibody produced by hybridoma ISK-MMH-TK2 (antibody, V domains shown)
VH: DVQLQDSGPGLVKPSQTVSLTCTVTGISITTGNFRWSWIRQFPGNKLEWIGYIYYSGTITYNPSLTSRTTITRDTSKNQFFLEMNSLTAEDTATYYCARELYGYGYFDVWAAGTTVTVSS
VL: DVVMTQIPLSLPVSLGDQASISCRSTQSLVHSNGNTYLHWFLQKPGQSPKLLIYKVSNRFSGVPDRFSGSGSGTDFTLKISRVEAEDLGVYFCSQSKYVPRTFGGGTKLEIKR
notes: used as hybridoma culture supernatant; The whole entries are named; they hold leader and primer-derived residues, X and *; also called FERM BP-11266

In assay [1] the target is B3. As to the kind of experiment: competitive ELISA: HIG-1-Flag coated at 2.5 µg/mL, ISK-MMH-TK2 culture supernatant (diluted 3,200-fold) premixed with soluble HIG-1-Flag as competing agent, AP-labelled anti-mouse IgG, A405nm. How it is done:
Specifically, the HIG-1-Flag obtained in Example 2 as a solid-phase antigen was coated at a concentration of 2.5 μg/mL (50 mM carbonate buffer solution, pH 9.6, Sigma, No. C3041) in an amount of 50 μL per well, onto a plate at room temperature for 1 hour. Washing was performed 3 times with PBS-T, and then blocking was conducted with PBS (10% FBS-PBS) containing 10% FBS for 1 hour. After washing was performed 3 times with PBS-T, the PBS-T diluent of the antibody culture supernatant obtained in Example 1 was mixed with a diluted solution of a competitive substance (serial dilution with PBS-T) and reacted at room temperature for 1 hour. The reaction mixture was placed in a plate in an amount of 50 W., per well and allowed to stand for 1 hour at room temperature. […] As competitive substances, a HIG-1-Flag (on which 3-fold serial dilution was performed 8 times from 0.167 μg/mL), KLH (on which 3-fold serial dilution was performed 8 times from 100 μg/mL), or GST (on which 3-fold serial dilution was performed 8 times from 100 μg/mL) was used. After washing was performed using PBS-T 3 times, the alkaline phosphatase-labeled secondary antibody (anti-mouse IgG) diluted 1,000-fold with 10% FBS-PBS-T was placed in an amount of 50 per well and allowed to stand at room temperature for 1 hour. […] After reaction, the 405 nm absorbance was measured.
A general note: An ELISA detects its analyte on a solid surface through an enzyme-linked reagent.

In assay [2] the target is B1. The assay is described as follows: competitive ELISA, coated HIG-1-Flag, soluble HIG-1-Flag as competitor. The method, then: Specifically, the HIG-1-Flag obtained in Example 2 as a solid-phase antigen was coated at a concentration of 2.5 μg/mL (50 mM carbonate buffer solution, pH 9.6, Sigma, No. C3041) in an amount of 50 μL per well, onto a plate at room temperature for 1 hour. Washing was performed 3 times with PBS-T, and then blocking was conducted with PBS (10% FBS-PBS) containing 10% FBS for 1 hour. After washing was performed 3 times with PBS-T, the PBS-T diluent of the antibody culture supernatant obtained in Example 1 was mixed with a diluted solution of a competitive substance (serial dilution with PBS-T) and reacted at room temperature for 1 hour. The reaction mixture was placed in a plate in an amount of 50 W., per well and allowed to stand for 1 hour at room temperature. […] After reaction, the 405 nm absorbance was measured.
These antibodies were both capable of quantitatively measuring a HIG-1-Flag in the range of 0.7 to 6.2 ng/mL. The dissociation constant Kd of the monoclonal antibody to a HIG-1-Flag was calculated with reference to “Antibody engineering; A Practical Approach” (edited by McCafferty J., et al.), Chapter 4, 77-97, IRL Press Oxford.

As usually defined, the Kd is the equilibrium constant for the complex coming apart.

For B1, the “IC50 (read off the curve)” value in assay [1] was about 2 ng/mL. Molecule B2 showed a Kd in assay [2] of 0.22 nM. Same read-out and setting: then B3, with 0.17 nM.
